# Measured values reported in PMC7721900, “Assembly properties of bacterial tubulin homolog FtsZ regulated by the positive regulator protein ZipA and ZapA from Pseudomonas aeruginosa” (Scientific Reports, 2020).
# Assays:
# Conditions in all cases: both partners purified
# [1] = target: T1, FtsZ from Escherichia coli (E. coli, UniProt P0A9A6 1-383); assay: Bodipy fluorescence quenching assay of assembly; HMK buffer, room temperature; 7 µM EcFtsZ (less than 10% Bodipy labeled T151C/Y222W with wild type), alone or with 10 µM ZapA or ZipA
# T1 construct: FtsZ, Escherichia coli, wild type; in pET11b; also called EcFtsZ; wild type FtsZ; source: bacterially expressed (pET11b), purified (30% ammonium sulfate, source Q 10/10)
# T1 sequence (looked up): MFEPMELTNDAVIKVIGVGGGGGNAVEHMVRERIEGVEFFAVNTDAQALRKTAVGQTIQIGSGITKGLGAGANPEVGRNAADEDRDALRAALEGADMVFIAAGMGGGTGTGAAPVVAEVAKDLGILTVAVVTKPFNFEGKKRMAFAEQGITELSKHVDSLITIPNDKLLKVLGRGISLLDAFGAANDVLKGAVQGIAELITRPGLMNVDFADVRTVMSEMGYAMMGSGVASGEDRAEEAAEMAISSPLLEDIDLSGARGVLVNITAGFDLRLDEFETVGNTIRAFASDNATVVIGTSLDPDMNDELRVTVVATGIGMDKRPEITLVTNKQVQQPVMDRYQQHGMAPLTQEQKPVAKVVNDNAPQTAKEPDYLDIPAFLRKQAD
# [2] = target: T1, FtsZ from Escherichia coli; assay: light scattering; HMK buffer, room temperature, 340 nm; 7 µM EcFtsZ plus 10 µM EcZapA
# [3] = target: T2, EcFtsZ-F268C labeled with fluorescein (donor) or tetramethylrhodamine (acceptor) (E. coli, UniProt P0A9A6 1-383, F268C, single cysteine labeled separately with Fluorescein 5-maleimide (donor) or Tetramethylrhodamine 5-maleimide (acceptor)); assay: FRET or BRET; HMK buffer; donor- and acceptor-labeled EcFtsZ-F268C polymerized separately for 5 min, alone or with 10 µM ZipA or ZapA, then mixed; decrease of donor fluorescence, single exponential fit; 7 µM EcFtsZ; subunit exchange at steady state
# T2 construct: FtsZ, Escherichia coli, single cysteine mutant F268C (printed as L268C in the results); in pET11b; also called EcFtsZ-L268C; source: bacterially expressed (pET11b), purified (30% ammonium sulfate, source Q 10/10)
# T2 sequence (looked up): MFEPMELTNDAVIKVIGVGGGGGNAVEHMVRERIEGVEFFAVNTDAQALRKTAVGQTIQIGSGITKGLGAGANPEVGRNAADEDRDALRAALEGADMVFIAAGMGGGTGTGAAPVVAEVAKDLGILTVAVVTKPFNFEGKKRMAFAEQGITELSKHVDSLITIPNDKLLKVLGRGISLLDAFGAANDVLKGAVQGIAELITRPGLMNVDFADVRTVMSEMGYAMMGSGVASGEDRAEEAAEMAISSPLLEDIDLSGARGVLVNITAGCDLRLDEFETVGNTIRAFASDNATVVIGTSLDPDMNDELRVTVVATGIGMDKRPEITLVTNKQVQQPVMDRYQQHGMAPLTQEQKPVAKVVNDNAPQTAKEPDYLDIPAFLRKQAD
# [4] = target: T3, FtsZ from Pseudomonas aeruginosa (P. aeruginosa, UniProt P47204 1-394); assay: negative stain electron microscopy; MMK buffer (50 mM MES, 100 mM KAc, 5 mM MgAc, pH 6.5), GTP, 1-5 min at room temperature; 5 µM PaFtsZ alone, or with 10 µM ZipA or ZapA
# T3 construct: FtsZ, Pseudomonas aeruginosa; cloned in pET15b at NdeI/BamHI; Forms protofilaments and bundles with GTP; also called PaFtsZ; source: E. coli BL21 (pET15b), purified (Talon column, thrombin, source Q 10/10)
# T3 sequence (looked up): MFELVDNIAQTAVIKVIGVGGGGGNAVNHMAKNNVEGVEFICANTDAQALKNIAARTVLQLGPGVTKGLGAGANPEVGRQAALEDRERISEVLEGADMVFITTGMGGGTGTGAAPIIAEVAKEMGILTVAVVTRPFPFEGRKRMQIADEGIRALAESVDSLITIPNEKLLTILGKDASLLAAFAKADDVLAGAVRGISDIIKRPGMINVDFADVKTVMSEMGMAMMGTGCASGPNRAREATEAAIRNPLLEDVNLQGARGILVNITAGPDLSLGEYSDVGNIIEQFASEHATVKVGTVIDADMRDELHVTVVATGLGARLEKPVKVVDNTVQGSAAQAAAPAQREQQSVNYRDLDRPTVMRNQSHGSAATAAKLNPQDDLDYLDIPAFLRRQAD
# [5] = target: T3, FtsZ from Pseudomonas aeruginosa; assay: negative stain electron microscopy; HMK buffer (50 mM HEPES, 100 mM KAc, 5 mM MgAc, pH 7.5), GTP, 1-5 min at room temperature; 3 or 5 µM PaFtsZ alone, or 5 µM PaFtsZ with 10 µM ZipA or ZapA
binder,measurement,setting,value
"EcFtsZ-T151C/Y222W labeled with Bodipy at Cys151 (natural protein, E. coli, UniProt P0A9A6 1-383, looked up, Bodipy-FL N-(2-aminoethyl)maleimide on Cys 151, FtsZ, Escherichia coli, double mutant T151C/Y222W; in pET11b; Used mixed with a ninefold excess of unlabeled wild-type EcFtsZ; also called Bodipy labeled FtsZ; labeled EcFtsZ; source: bacterially expressed (pET11b), purified (30% ammonium sulfate, source Q 10/10)) MFEPMELTNDAVIKVIGVGGGGGNAVEHMVRERIEGVEFFAVNTDAQALRKTAVGQTIQIGSGITKGLGAGANPEVGRNAADEDRDALRAALEGADMVFIAAGMGGGTGTGAAPVVAEVAKDLGILTVAVVTKPFNFEGKKRMAFAEQGICELSKHVDSLITIPNDKLLKVLGRGISLLDAFGAANDVLKGAVQGIAELITRPGLMNVDFADVRTVMSEMGWAMMGSGVASGEDRAEEAAEMAISSPLLEDIDLSGARGVLVNITAGFDLRLDEFETVGNTIRAFASDNATVVIGTSLDPDMNDELRVTVVATGIGMDKRPEITLVTNKQVQQPVMDRYQQHGMAPLTQEQKPVAKVVNDNAPQTAKEPDYLDIPAFLRKQAD",binding result,[1],binds
"ZapA from Escherichia coli (natural protein, E. coli, UniProt P0ADS2 1-109, looked up, ZapA, Escherichia coli; cloned in pET15b at NdeI/BamHI; Removal of the His tag is told only for PaFtsZ; also called EcZapA; source: E. coli BL21 (pET15b), purified (Talon column)) MSAQPVDIQIFGRSLRVNCPPDQRDALNQAADDLNQRLQDLKERTRVTNTEQLVFIAALNISYELAQEKAKTRDYAASMEQRIRMLQQTIEQALLEQGRITEKTNQNFE",binding result,[2],binds
same,binding result,[3],binds
"N-terminal truncated PaZipA (26-289) (domain or fragment, P. aeruginosa, UniProt Q9I3I5 26-289, looked up, ZipA, Pseudomonas aeruginosa, residues 26-289; N-terminally truncated to remove the transmembrane domain; Removal of the His tag is told only for PaFtsZ; also called ZipA from Pseudomonas aeruginosa; source: E. coli BL21 (pET15b), purified (Talon column)) RRMRGGKGKLKFKLDRSFANLPDDDGDSAELLGPARVVEHREPSFDEQDLPSVSAREAKERKGGKRQEEPRQGDLDLDEGLALEADPSDAAETVEPRKGKSKGRKEKEREKAPAVAAEPAPVDEVLIINVIARDESGFKGPALLQNILESGLRFGDMDIFHRHESMAGNGEILFSMANAVKPGTFDLDDIDNFSTRAVSFFLGLPGPRHPKQAFDVMVAAARKLAHELNGELKDEQRSVLTAQTIEHYRQRIIDHERRSLMQKR",binding result,[4],binds
"ZapA from Pseudomonas aeruginosa (natural protein, P. aeruginosa, UniProt Q9HTW3 1-104, looked up, ZapA, Pseudomonas aeruginosa; cloned in pET15b at NdeI/BamHI; Removal of the His tag is told only for PaFtsZ; also called PaZapA; source: E. coli BL21 (pET15b), purified (Talon column)) MSQSNTLTVQILDKEYCINCPDDERANLESAARYLDGKMREIRSSGKVIGADRVAVMAALNITHDLLHRKERLDQESSSTRERVRELLDRVDRALANPADAGEA",binding result,[5],binds
